Usually stoichiometry N stands for a count of units in the complex or per binding partner.

Among the data in paper doi:10.1101/2022.06.28.497981 are stoichiometry N values, retold here.

Assay [1] concerns the target batCOV5-MCTD-GFP as crystallized (Pipistrellus bat coronavirus HKU5) (UniProt A3EXD6). As to the kind of experiment: crystal structure.
The target of assay [2] is batCOV5-M, trypsin-treated stable core as crystallized (batCOV5-M_(xtal)) (Pipistrellus bat coronavirus HKU5) (UniProt A3EXD6). In words: crystal structure.

On to “batCOV5-MCTD-GFP as crystallized (from UniProt A3EXD6 115-203) (domain or fragment)”, for which the stoichiometry N in assay [1] came out at 4.

For “batCOV5-M, trypsin-treated stable core as crystallized (batCOV5-M_(xtal)) (from UniProt A3EXD6 1-220) (natural protein)”, in assay [2], the stoichiometry N amounted to 2.
